One test has as its system E. coli strain K12. Description: In vivo production of malonate in E. coli using S. cerevisiae EHD3 malonyl-CoA hydrolases. In kind it is cell-based. As for the experimental part: This example describes the host cells and culture conditions resulting in the in vivo production of malonate using a heterologous EHD3 malonyl-CoA hydrolase in an E. coli host cell. E. coli strain K12 was transformed with vectors containing wild-type EHD3, EHD3 (E124A), […], EHD3 (E124S), EHD3 (E124A, E308V) or an empty vector negative control. Transformants were streaked on LB agar plates (Cm^50, 2% glucose). Following overnight growth at 37° C., individual colonies were inoculated into 3 ml LB (Cm^50, 2% glucose) in a 48-well plate. Cultures were incubated on a plate shaker at 37° C. for 6 hours, at which point each culture was inoculated 1% v/v into M9 minimal medium supplemented with Cm^50 and a mixed carbon source (0.5% glycerol, 0.05% glucose, 0.2% lactose) in a 48-well plate. Cultures were incubated on a plate shaker at 30° C., and a 500 μL sample of the fermentation broth was removed for analysis after 48 hours incubation.
Samples were centrifuged (×6000 g, 1 min) and the supernatant analyzed for malonate quantification. Chemical standards were prepared in […] of water. The separation of malonate was conducted on a Shimadzu Prominence XR UPLC connected to a refractive index detector and UV detector monitoring 210 nm. Product separation was performed on a Bio-Rad Fermentation Monitoring column. The UPLC was programmed to run isocratically using 5 mM H2504 as the eluant with a flow rate of 600 μL per minute. 10 μL were injected per sample, and the sample plate temperature was held at 4° C. Malonate standards began eluting at […]. […] Malonate concentrations (mg/1) were calculated by comparison to a standard curve prepared from authentic malonate.

The test system of test [1] is S. cerevisiae BY4741 yeast cells. Description: Production of malonate in yeast expressing various malonyl-CoA hydrolases. It is filed as cell-based. As to conditions: S. cerevisiae BY4741, SD-Ura, 30° C., 140 h of fermentation; mean±S.D.; n=4. The source says:
Nucleic acids encoding various malonyl-CoA hydrolases provided by this disclosure [EHD3 (E124S), B9IZZ9-1, F0PNG8-1, H0NHL7, C3ALI3-1, Q81DR3-1, A4XS22-1, E2XN63-1, A5W8H3-1 and F6AA82-2] were amplified by PCR from plasmids using the primers listed in Table 4. The purified PCR products were cloned downstream of the TEF1 promoter and upstream of the CYC1 terminator in a shuttle vector containing an ampicillin resistance cassette, a PMB1 origin of replication, a CEN/ARS origin of replication and a URA3 selection marker. The resulting plasmids were transformed into E. coli competent host cells and selected on LB agar plates containing Cb^50. Following overnight incubation at 37° C., individual colonies were inoculated in 2 ml of LB-Cb^50 in a 48-well plate and grown for 5 h at 37° C. on a shaker before the plasmids were isolated and confirmed by sequencing.
S. cerevisiae BY4741 yeast cells were used as host for the vectors for expression of the various malonyl-CoA hydrolases. The plasmid vectors were individually introduced into the yeast host cells using standard procedures. […]
An individual colony for each transformant picked was inoculated into a 50 μl aliquot of SD-Ura medium in a 96-well plate. […] No malonate was detected in samples consisting of medium not inoculated with yeast cells. […]

B1: EHD3 (E124S) (protein, UniProt P28817 1-500, looked up, variant E124S)
Small ribosomal subunit …: MLRNTLKCAQLSSKYGFKTTTRTFMTTQPQLNVTDAPPVLFTVQDTARVITLNRPKKLNALNAEMSESMFKTLNEYAKSDTTNLVILKSSNRPRSFCAGGDVATVAIFNFNKEFAKSIKFFTDSYSLNFQIATYLKPIVTFMDGITMGGGVGLSIHTPFRIATENTKWAMPEMDIGFFPDVGSTFALPRIVTLANSNSQMALYLCLTGEVVTGADAYMLGLASHYVSSENLDALQKRLGEISPPFNNDPQSAYFFGMVNESIDEFVSPLPKDYVFKYSNEKLNVIEACFNLSKNGTIEDIMNNLRQYEGSAEGKAFAQEIKTKLLTKSPSSLQIALRLVQENSRDHIESAIKRDLYTAANMCMNQDSLVEFSEATKHKLIDKQRVPYPWTKKEQLFVSQLTSITSPKPSLPMSLLRNTSNVTWTQYPYHSKYQLPTEQEIAAYIEKRTNDDTGAKVTEREVLNHFANVIPSRRGKLGIQSLCKIVCERKCEEVNDGLRWK
In the case of B1, the “malonate production relative to wild-type EHD3” value in the test with E. coli strain K12 (E. coli K12, 48 hours) is recorded as “significant (p<0.05, t-test) increase”. Also, the “Malonate Concentration” value in the test with E. coli strain K12 (E. coli K12, M9 minimal medium, 30° C., 48 hours, mean±std dev, n=3) turned out to be 82.3 ± 7.8 mg/L. For the same molecule, the “Malonate Peak Area” value in test [1] is 94,721 ± 8,115.
